Data on 1 molecule can be found in US20160355553A1 (Janssen / Centocor, published 2016).

One test concerns the target T1, FL4-06 B-m2-CL1+5-GCN4b (influenza B virus, UniProt P03461 6-574).
T1 chain: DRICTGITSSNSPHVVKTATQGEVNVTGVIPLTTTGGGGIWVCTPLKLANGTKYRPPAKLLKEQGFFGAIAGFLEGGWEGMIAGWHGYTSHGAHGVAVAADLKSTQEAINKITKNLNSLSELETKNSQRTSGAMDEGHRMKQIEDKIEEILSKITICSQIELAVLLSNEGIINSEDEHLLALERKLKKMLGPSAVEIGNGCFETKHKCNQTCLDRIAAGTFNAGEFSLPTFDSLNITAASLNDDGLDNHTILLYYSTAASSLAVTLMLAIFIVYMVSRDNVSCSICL
Kind of test: FACS, transfected cells.

Test [1] concerns the target T2, Mal2506-04 B-m2-CL1+5-GCN4a (influenza B virus, UniProt P03461 6-574).
T2 chain: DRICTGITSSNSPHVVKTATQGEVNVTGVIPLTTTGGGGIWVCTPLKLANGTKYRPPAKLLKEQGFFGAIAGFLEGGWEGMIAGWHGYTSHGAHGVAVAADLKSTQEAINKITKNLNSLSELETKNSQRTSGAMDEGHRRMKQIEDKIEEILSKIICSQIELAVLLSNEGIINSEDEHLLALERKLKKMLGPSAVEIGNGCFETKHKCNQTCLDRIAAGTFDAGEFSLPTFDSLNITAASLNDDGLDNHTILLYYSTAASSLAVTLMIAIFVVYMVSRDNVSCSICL
Description: FACS, transfected cells.

B1: CR9114 (antibody, V domains shown)
VH: QVQLVQSGAEVKKPGSSVKVSCKSSGGTSNNYAISWVRQAPGQGLDWMGGISPIFGSTAYAQKFQGRVTISADIFSNTAYMELNSLTSEDTAVYFCARHGNYYYYSGMDVWGQGTTVTVSS
VL: SYVLTQPPAVSGTPGQRVTISCSGSDSNIGRRSVNWYQQFPGTAPKLLIYSNDQRPSVVPDRFSGSKSGTSASLAISGLQSEDEAEYYCAAWDDSLKGAVFGGGTQLTVL
B1: the binding result (in the test with FL4-06 B-m2-CL1+5-GCN4b; in test [1]) was “no binding” each time.
